From patent US10538583 (dated 2020)

Tests used:
human ApoC3 [1] = biological target: human ApoC3 (human); test: SPR pH 5.5
human ApoC3 [2] = biological target: human ApoC3 (human); test: SPR pH 7.4
human ApoC3 [3] = biological target: human ApoC3 (human); test: SPR pH 5.5, antibody immobilized
human ApoC3 [4] = biological target: human ApoC3 (human); test: SPR pH 7.4, antibody immobilized
human ApoC3 [5] = biological target: human ApoC3 (human); test: SPR pH 5.5; remark: listed apart in the source
human ApoC3 [6] = biological target: human ApoC3 (human); test: SPR pH 7.4; remark: listed apart in the source
human ApoC3 [7] = biological target: human ApoC3 (human); test: SPR pH 5.5; remark: listed apart in the source
human ApoC3 [8] = biological target: human ApoC3 (human); test: SPR pH 7.4; remark: listed apart in the source
human ApoC3 [9] = biological target: human ApoC3 (human); test: SPR pH 5.5; remark: listed apart in the source

Chain of human ApoC3 (human) (chain, as listed by the source): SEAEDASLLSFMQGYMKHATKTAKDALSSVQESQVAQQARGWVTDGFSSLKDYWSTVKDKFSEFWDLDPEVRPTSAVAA

B1: mAb12 (antibody, V domains shown)
VH: QLVESGGGLVQPGGSLRLSCAASGFTFSTYSMRWVRQVPGKGLEWVSSIHTDAGGTAYRDSVKGRFTISRDNAKNTLYLQMNSLRPEDTAIYYCVIAGYSDWGQGTLVTVSS
VL: DIVMTQSPLSLSVTPGEPASISCKTSQGLVHSDGKTYFYWFLQKPGQSPQQLIYQVSNRASGVPDRFTGSGSGTDFTLKISRVKAEDVGVYYCAHGTYYPHTFGQGTRLEIK
- Kd (human ApoC3 [1]): 0.139 nM
- Kd (human ApoC3 [2]): 0.0655 nM
- Kd (human ApoC3 [3]): 343 nM
- Kd (human ApoC3 [4]): 321 nM

B2: 5E5VH5VH12_VLWT IgG1 (antibody, V domains shown)
VH: QLQLVESGGGLVQPGGSLRLSCAASGFTFGTYSMRWVRQVPRKALEWVSSIHTDGGGTAYRDSVKGRFTISRDNAKNTLYLQMNNLKPEDTAIYYCVIHGYSDWGQGTQVTVSS
VL: ATMLTQSPGSLSVVPGESASISCKTSQGLVHSDGKTYFYWFLQKPGQSPQQLIYQVSNRASGVPDRFTGSGSGTDFTLKISGVKAEDAGVYYCAQGTYYPHTFGSGTRLEIK
- Kd (human ApoC3 [5]): 20.2 nM
- Kd (human ApoC3 [6]): 4.96 nM

B3: 5E5VH12_VLWT scFv-Fc (antibody, V domains shown)
VH: QLQLVESGGGLVQPGGSLRLSCAASGFTFGTYSMRWVRQVPRKALEWVSSISTDGGGTAYRDSVKGRFTISRDNAKNTLYLQMNNLKPEDTAIYYCVIHGYSDWGQGTQVTVSS
VL: ATMLTQSPGSLSVVPGESASISCKTSQGLVHSDGKTYFYWFLQKPGQSPQQLIYQVSNRASGVPDRFTGSGSGTDFTLKISGVKAEDAGVYYCAQGTYYPHTFGSGTRLEIK
- Kd (human ApoC3 [7]): 16 nM
- Kd (human ApoC3 [8]): 0.51 nM

B4: 5E5WT scFv-Fc (antibody, V domains shown)
VH: QLQLVESGGGLVQPGGSLRLSCAASGFTFGTYSMRWVRQVPRKALEWVSSISTDGGGTAYRDSVKGRFTISRDNAKNTLYLQMNNLKPEDTAIYYCVIAGYSDWGQGTQVTVSS
VL: ATMLTQSPGSLSVVPGESASISCKTSQGLVHSDGKTYFYWFLQKPGQSPQQLIYQVSNRASGVPDRFTGSGSGTDFTLKISGVKAEDAGVYYCAQGTYYPHTFGSGTRLEIK
- Kd (human ApoC3 [7]): 0.06 nM
- Kd (human ApoC3 [8]): 0.02 nM

B5: 5E5VHWT_VL8 IgG1 (antibody, V domains shown)
VH: QLQLVESGGGLVQPGGSLRLSCAASGFTFGTYSMRWVRQVPRKALEWVSSISTDGGGTAYRDSVKGRFTISRDNAKNTLYLQMNNLKPEDTAIYYCVIAGYSDWGQGTQVTVSS
VL: ATMLTQSPGSLSVVPGESASISCKTSQGLVHSDGKTYFYWFLQKPGQSPQQLIYQVSNRASGVPDRFTGSGSGTDFTLKISGVKAEDAGVYYCAHGTYYPHTFGSGTRLEIK
- Kd (human ApoC3 [5]): 0.0556 nM
- Kd (human ApoC3 [6]): 0.0363 nM

B6: 5E5VH12_VL8 IgG1 (antibody, V domains shown)
VH: QLQLVESGGGLVQPGGSLRLSCAASGFTFGTYSMRWVRQVPRKALEWVSSISTDGGGTAYRDSVKGRFTISRDNAKNTLYLQMNNLKPEDTAIYYCVIHGYSDWGQGTQVTVSS
VL: ATMLTQSPGSLSVVPGESASISCKTSQGLVHSDGKTYFYWFLQKPGQSPQQLIYQVSNRASGVPDRFTGSGSGTDFTLKISGVKAEDAGVYYCAHGTYYPHTFGSGTRLEIK
- Kd (human ApoC3 [5]): 8.79 nM
- Kd (human ApoC3 [6]): 0.609 nM

B7: 5E5VHWT_VL8 scFv-Fc (antibody, V domains shown)
VH: QLQLVESGGGLVQPGGSLRLSCAASGFTFGTYSMRWVRQVPRKALEWVSSISTDGGGTAYRDSVKGRFTISRDNAKNTLYLQMNNLKPEDTAIYYCVIAGYSDWGQGTQVTVSS
VL: ATMLTQSPGSLSVVPGESASISCKTSQGLVHSDGKTYFYWFLQKPGQSPQQLIYQVSNRASGVPDRFTGSGSGTDFTLKISGVKAEDAGVYYCAHGTYYPHTFGSGTRLEIK
- Kd (human ApoC3 [7]): 4.29 nM
- Kd (human ApoC3 [8]): 0.58 nM

B8: 5E5WT (5E5) IgG1 (antibody, V domains shown)
VH: QLQLVESGGGLVQPGGSLRLSCAASGFTFGTYSMRWVRQVPRKALEWVSSISTDGGGTAYRDSVKGRFTISRDNAKNTLYLQMNNLKPEDTAIYYCVIAGYSDWGQGTQVTVSS
VL: ATMLTQSPGSLSVVPGESASISCKTSQGLVHSDGKTYFYWFLQKPGQSPQQLIYQVSNRASGVPDRFTGSGSGTDFTLKISGVKAEDAGVYYCAQGTYYPHTFGSGTRLEIK
- Kd (human ApoC3 [1]): 0.0499 nM
- Kd (human ApoC3 [5]): 0.0499 nM
- Kd (human ApoC3 [2]): 0.0512 nM
- Kd (human ApoC3 [6]): 0.0512 nM

B9: 5E5VH5VH12_VL8 IgG1 (antibody, V domains shown)
VH: QLQLVESGGGLVQPGGSLRLSCAASGFTFGTYSMRWVRQVPRKALEWVSSIHTDGGGTAYRDSVKGRFTISRDNAKNTLYLQMNNLKPEDTAIYYCVIHGYSDWGQGTQVTVSS
VL: ATMLTQSPGSLSVVPGESASISCKTSQGLVHSDGKTYFYWFLQKPGQSPQQLIYQVSNRASGVPDRFTGSGSGTDFTLKISGVKAEDAGVYYCAHGTYYPHTFGSGTRLEIK
- Kd (human ApoC3 [6]): 22.4 nM
- binding result (human ApoC3 [9]): no binding

B10: 5E5VH5_VL8 IgG1 (antibody, V domains shown)
VH: QLQLVESGGGLVQPGGSLRLSCAASGFTFGTYSMRWVRQVPRKALEWVSSIHTDGGGTAYRDSVKGRFTISRDNAKNTLYLQMNNLKPEDTAIYYCVIAGYSDWGQGTQVTVSS
VL: ATMLTQSPGSLSVVPGESASISCKTSQGLVHSDGKTYFYWFLQKPGQSPQQLIYQVSNRASGVPDRFTGSGSGTDFTLKISGVKAEDAGVYYCAHGTYYPHTFGSGTRLEIK
- Kd (human ApoC3 [1]): 11.4 nM
- Kd (human ApoC3 [5]): 11.4 nM
- Kd (human ApoC3 [2]): 0.975 nM
- Kd (human ApoC3 [6]): 0.975 nM
- Kd (human ApoC3 [4]): 298 nM

B11: 5E5VH5_VLWT IgG1 (antibody, V domains shown)
VH: QLQLVESGGGLVQPGGSLRLSCAASGFTFGTYSMRWVRQVPRKALEWVSSIHTDGGGTAYRDSVKGRFTISRDNAKNTLYLQMNNLKPEDTAIYYCVIAGYSDWGQGTQVTVSS
VL: ATMLTQSPGSLSVVPGESASISCKTSQGLVHSDGKTYFYWFLQKPGQSPQQLIYQVSNRASGVPDRFTGSGSGTDFTLKISGVKAEDAGVYYCAQGTYYPHTFGSGTRLEIK
- Kd (human ApoC3 [5]): 1.31 nM
- Kd (human ApoC3 [6]): 0.211 nM

B12: 5E5VH12_VLWT IgG1 (antibody, V domains shown)
VH: QLQLVESGGGLVQPGGSLRLSCAASGFTFGTYSMRWVRQVPRKALEWVSSISTDGGGTAYRDSVKGRFTISRDNAKNTLYLQMNNLKPEDTAIYYCVIHGYSDWGQGTQVTVSS
VL: ATMLTQSPGSLSVVPGESASISCKTSQGLVHSDGKTYFYWFLQKPGQSPQQLIYQVSNRASGVPDRFTGSGSGTDFTLKISGVKAEDAGVYYCAQGTYYPHTFGSGTRLEIK
- Kd (human ApoC3 [5]): 1.02 nM
- Kd (human ApoC3 [6]): 0.0351 nM

B13: 5E5VH5_VLWT scFv-Fc (antibody, V domains shown)
VH: QLQLVESGGGLVQPGGSLRLSCAASGFTFGTYSMRWVRQVPRKALEWVSSIHTDGGGTAYRDSVKGRFTISRDNAKNTLYLQMNNLKPEDTAIYYCVIAGYSDWGQGTQVTVSS
VL: ATMLTQSPGSLSVVPGESASISCKTSQGLVHSDGKTYFYWFLQKPGQSPQQLIYQVSNRASGVPDRFTGSGSGTDFTLKISGVKAEDAGVYYCAQGTYYPHTFGSGTRLEIK
- Kd (human ApoC3 [7]): 10.9 nM
- Kd (human ApoC3 [8]): 0.59 nM
